Assays:
[1] = target: human EGFR (cell surface) (human) (UniProt P00533); assay: FACS binding to A431 cells, lower panel and table; curve flat
[2] = target: human EGFR (cell surface) (human) (UniProt P00533); assay: FACS binding to A431 cells, upper panel and table; EC50 cell reads N/A, curve flat
[3] = target: Macaca fascicularis EGFR (cell surface) (Macaca fascicularis); assay: FACS binding to W562.CHOK1.cPro1.H6 cells (monkey EGFR), upper panel and table; curve flat
[4] = target: mouse EGFR (cell surface) (mouse) (UniProt Q01279); assay: FACS binding to W562-CHO-K1.mPro1.F3 cells (mouse EGFR), lower panel and table; EC50 cell reads N/A, curve flat
[5] = target: Macaca fascicularis EGFR (cell surface) (Macaca fascicularis); assay: FACS binding to W562-CHO-K1.cPro1.H6 cells (monkey EGFR), lower panel and table; EC50 cell reads N/A, curve flat
[6] = target: human EGFR (cell surface) (human) (UniProt P00533); assay: FACS binding to A431 cells, lower panel and table; the curve is flat at the baseline, so this is the fit of a flat curve (see non_binding)
[7] = target: human EGFR (cell surface) (human) (UniProt P00533); assay: FACS competition on A431 cells, blocked ligand EGF-biotin, MFI is the EGF-biotin signal; lower panel and table; IC50 cell reads N/A, no inhibition
[8] = target: human EGFR (cell surface) (human) (UniProt P00533); assay: FACS competition on A431 cells, blocked ligand EGF-biotin, MFI is the EGF-biotin signal; upper panel and table; IC50 cell reads N/A, no inhibition
[9] = target: Macaca fascicularis EGFR (cell surface) (Macaca fascicularis); assay: FACS binding to W562.CHOK1.cPro1.H6 cells (monkey EGFR), upper panel and table; the curve is flat at the baseline, so this is the fit of a flat curve (see non_binding)
[10] = target: mouse EGFR (cell surface) (mouse) (UniProt Q01279); assay: FACS binding to mouse EGFR cells; the table head prints W562.CHOK1.cPro1.H6; EC50 cell reads N/A, curve flat

TOP MFI [1]: 58.5 MFI
Top MFI [2]: 35.1 MFI
Top MFI [3]: 35.6 MFI
TOP MFI [4]: 85.6 MFI
TOP MFI [5]: 54.9 MFI
EC50 [6]: 10 pM
Bottom MFI [7]: 3890 MFI
Bottom MFI [8]: 4680 MFI
EC50 [9]: 70 pM
Top MFI [10]: 32.3 MFI
Substance: Isotype (antibody)
